B1: mRNA capping protein λ2 (enzyme)
chain: MANVWGVRLADSLSSPTIETRTRQYTLHDLCSDLDANPGREPWKPLRNQRTNNIVAVQLFRPLQGLVLDTQLYGFPGAFDDWERFMREKLRVLKYEVLRIYPISNYSNEHVNVFVANALVGAFLSNQAFYDLLPLLIINDTMIGDLLGTGASLSQFFQSHGDVLEVAAGRKYLQMENYSNDDDDPPLFAKDLSDYAKAFYSDTYEVLDRFFWTHDSSAGVLVHYDKPTNGHHYLLGTLTQMVSAPPYIINATDAMLLESCLEQFSANVRARPAQPVTRLDQCYHLRWGAQYVGEDSLTYRLGVLSLLATNGYQLARPIPRQLTNRWLSSFVSQIMSDGVNETPLWPQERYVQIAYDSPSVVDGATQYGYVRKNQLRLGMRISALQSLSDTPSPVQWLPQYTIDQAAMDEGDLMVSRLTQLPLRPDYGNIWVGDALSYYVDYNRSHRVVLSSELPQLPDTYFDGDEQYGRSLFSLARKIGDRSLVKDTAVLKHAYQAIDPNTGKEYLRSRQSVAYFGASAGHSGADQPLVIEPWIQGKISGVPPPSSVRQFGYDVARGAIVDLARPFPSGDYQFVYSDVDQVVDGHDDLSISSGLVESLLSSCMHATAPGGSFVVKINFPTRPVWHYIEQKILPNITSYMLIKPFVTNNVELFFVAFGVHQHSSLTWTSGVYFFLVDHFYRYETLSTISRQLPSFGYVDDGSSVTGIETISIENPGFSNMTQAARIGISGLCANVGNARKSIAIYESHGARVLTITSRRSPASARRKSRLRYLPLIDPRSLEVQARTILPADPVLFENVSGASPHVCLTMMYNFEVSSAVYDGDVVLDLGTGPEAKILELIPATSPVTCVDIRPTAQPSGCWNVRTTFLELDYLSDGWITGVRGDIVTCMLSLGAAAAGKSMTFDAAFQQLIKVLSKSTANVVLVQVNCPTDVVRSIKGYLEIDSTNKRYRFPKFGRDEPYSDMDALEKICRTAWPNCSITWVPLSYDLRWTRLALLESTTLSSASIRIAELMYKYMPIMRIDIHGLPMEKRGNFIVGQNCSLVIPGFNAQDVFNCYFNSALAFSTEDVNAAMIPQVSAQFDATKGEWTLDMVFSDAGIYTMQALVGSNANPVSLGSFVVDSPDVDITDAWPAQLDFTIAGTDVDITVNPYYRLMTFVRIDGQWQIANPDKFQFFSSASGTLVMNVKLDIADKYLLYYIRDVQSRDVGFYIQHPLQLLNTITLPTNEDLFLSAPDMREWAVKESGNTICILNSQGFVLPQDWDVLTDTISWSPSIPTYIVPPGDYTLTPL
notes: mRNA capping protein λ2 of mammalian reovirus serotype Dearing 3, native in the virus particle; 60 copies forming 12 pentameric turrets; also called capping enzyme λ2; turret
B2: receptor binding protein σ1 (natural protein)
chain: MDPRLREEVVRLIIALTSDNGASLSKGLESRVSALEKTSQIHSDTILRITQGLDDANKRIIALEQSRDDLVASVSDAQLAISRLESSIGALQTVVNGLDSSVTQLGARVGQLETGLAELRVDHDNLVARVDTAERNIGSLTTELSTLTLRVTSIQADFESRISTLERTAVTSAGAPLSIRNNRMTMGLNDGLTLSGNNLAIRLPGNTGLNIQNGGLQFRFNTDQFQIVNNNLTLKTTVFDSINSRIGATEQSYVASAVTPLRLNSSTKVLDMLIDSSTLEINSSGQLTVRSTSPNLRYPIADVSGGIGMSPNYRFRQSMWIGIVSYSGSGLNWRVQVNSDIFIVDDYIHICLPAFDGFSIADGGDLSLNFVTGLLPPLLTGDTEPAFHNDVVTYGAQTVAIGLSSGGAPQYMSKNLWVEQWQDGVLRLRVEGGGSITHSNSKWPAMTVSYPRSFT
notes: 12 trimers in each particle; Seen only in the sub-particle reconstruction; also called σ1 trimer; σ1 spike
B3: membrane penetration protein µ1 (natural protein)
chain 1: MGNASSIVQTINVTGDGNVFKPSAETSSTAVPSLSLSPGMLN
chain 2: PGGVPWIAVGDETSVTSPGALRRMTSKDIPETAIINTDNSSGAVPSESALVPYIDEPLVVVTEHAITNFTKAEMALEFNREFLDKMRVLSVSPKYSDLLTYVDCYVGVSARQALNNFQKQVPVITPTRQTMYVDSIQAALKALEKWEIDLRVAQTLLPTNVPIGEVSCPMQSVVKLLDDQLPDDSLIRRYPKEAAVALAKRNGGIQWMDVSEGTVMNEAVNAVAASALAPSASAPPLEEKSKLTEQAMDLVTAAEPEIIASLAPVPAPVFAIPPKPADYNVRTLRIDEATWLRMIPKSMNTPFQIQVTDNTGTNWHLNLRGGTRVVNLDQIAPMRFVLDLGGKSYKETSWDPNGKKVGFIVFQSKIPFELWTAASQIGQATVVNYVQLYAEDSSFTAQSIIATTSLAYNYEPEQLNKTDPEMNYYLLATFIDSAAITPTNMTQPDVWDALLTMSPLSAGEVTVKGAVVSEVVPADLIGSYTPESLNASLPNDAARCMIDRASKIAEAIKIDDDAGPDEYSPNSVPIQGQLAISQLETGYGVRIFNPKGILSKIASRAMQAFIGDPSTIITQAAPVLSDKNNWIALAQGVKTSLRTKSLSAGVKTAVSKLSSSESIQNWTQGFLDKVSAHFPAPKPDCPTSGDSGESSNRRVKRDSYAGVVKRGYTR
modifications: N-myristoyl group at the amino terminus
notes: N-terminal (N-myristoyl) fragment of penetration protein μ1 of mammalian reovirus serotype Dearing 3, up to the autolytic cleavage site between N42 and P43; penetration protein μ1 of mammalian reovirus serotype Dearing 3 from the autolytic cleavage site between N42 and P43 onwards; 600 copies (200 trimers) in each particle; also called μ1; penetration protein μ1; copies: 3 + 3
B4: capsid shell protein (CSP) λ1 (natural protein)
chain: MKRIPRKTKGKSSGKGNDSTERADDGSSQLRDKQNNKAGPATTEPGTSNREQYKARPGIASVQRATESAEMPMKNNDEGTPDKKGNTKGDLVNEHSEAKDEADEATKKQAKDTDKSKAQVTYSDTGINNANELSRSGNVDNEGGSNQKPMSTRIAEATSAIVSKHPARVGLPPTASSGHGYQCHVCSAVLFSPLDLDAHVASHGLHGNMTLTSSDIQRHITEFISSWQNHPIVQVSADVENKKTAQLLHADTPRLVTWDAGLCTSFKIVPIVPAQVPQDVLAYTFFTSSYAIQSPFPEAAVSRIVVHTRWASNVDFDRDSSVIMAPPTENNIHLFKQLLNTETLSVRGANPLMFRANVLHMLLEFVLDNLYLNRHTGFSQDHTPFTEGANLRSLPGPDAEKWYSIMYPTRMGTPNVSKICNFVASCVRNRVGRFDRAQMMNGAMSEWVDVFETSDALTVSIRGRWMARLARMNINPTEIEWALTECAQGYVTVTSPYAPIVNRLMPYRISNAERQISQIIRIMNIGNNATVIQPVLQDISVLLQRISPLQIDPTIISNTMSTVSESTTQTLSPASSILGKLRPSNSDFSSFRVALAGWLYNGVVTTVIDDSSYPKDGGSVTSLENLWDFFILALALPLTTDPCAPVKAFMTLANMMVGFETIPMDNQIYTQSRRASAFSTPHTWPRCFMNIQLISPIDAPILRQWAEIIHRYWPNPSQIRYGAPNVFGSANLFTPPEVLLLPIDHQPANVTTPTLDFTNELTNWRARVCELMKNLVDNQRYQPGWTQSLVSSMRGTLDKLKLIKSMTPMYLQQLAPVELAVIAPMLPFPPFQVPYVRLDRDRVPTMVGVTRQSRDTITQPALSLSTTNTTVGVPLALDARAITVALLSGKYPPDLVTNVWYADAIYPMYADTEVFSNLQRDMITCEAVQTLVTLVAQISETQYPVDRYLDWIPSLRASAATAATFAEWVNTSMKTAFDLSDMLLEPLLSGDPRMTQLAIQYQQYNGRTFNIIPEMPGSVIADCVQLTAEVFNHEYNLFGIARGDIIIGRVQSTHLWSPLAPPPDLVFDRDTPGVHIFGRDCRISFGMNGAAPMIRDETGLMVPFEGNWIFPLALWQMNTRYFNQQFDAWIKTGELRIRIEMGAYPYMLHYYDPRQYANAWNLTSAWLEEITPTSIPSVPFMVPISSDHDISSAPAVQYIISTEYNDRSLFCTNSSSPQTIAGPDKHIPVERYNILTNPDAPPTQIQLPEVVDLYNVVTRYAYETPPITAVVMGVP
notes: capsid shell protein λ1 of mammalian reovirus serotype Dearing 3, native in the virus particle; 120 copies in each particle as λ1A/λ1B dimers; five pairs (1-5) around each vertex; also called λ1A; λ1B

Biological target: the molecule itself
Assay: cryo-EM structure; asymmetric (C1) vertex sub-particle reconstructions of native MRV ISVP at 3.3 Å, asymmetric full ISVP at 4.3 Å; isolated virus particles in PBS pH 7.4; proteins assembled in the particle, in situ

Row | Protein | stoichiometry N
1 | B1 | 5
2 | B2 | 3
3 | B3 | 3
4 | B4 | 2
